The experiment concerns the target human Kap-β2/Transportin-1 (TNPO1), GST tag removed (human) (UniProt Q92973).
Sequence of UniProt Q92973 (Q92973 whole entry): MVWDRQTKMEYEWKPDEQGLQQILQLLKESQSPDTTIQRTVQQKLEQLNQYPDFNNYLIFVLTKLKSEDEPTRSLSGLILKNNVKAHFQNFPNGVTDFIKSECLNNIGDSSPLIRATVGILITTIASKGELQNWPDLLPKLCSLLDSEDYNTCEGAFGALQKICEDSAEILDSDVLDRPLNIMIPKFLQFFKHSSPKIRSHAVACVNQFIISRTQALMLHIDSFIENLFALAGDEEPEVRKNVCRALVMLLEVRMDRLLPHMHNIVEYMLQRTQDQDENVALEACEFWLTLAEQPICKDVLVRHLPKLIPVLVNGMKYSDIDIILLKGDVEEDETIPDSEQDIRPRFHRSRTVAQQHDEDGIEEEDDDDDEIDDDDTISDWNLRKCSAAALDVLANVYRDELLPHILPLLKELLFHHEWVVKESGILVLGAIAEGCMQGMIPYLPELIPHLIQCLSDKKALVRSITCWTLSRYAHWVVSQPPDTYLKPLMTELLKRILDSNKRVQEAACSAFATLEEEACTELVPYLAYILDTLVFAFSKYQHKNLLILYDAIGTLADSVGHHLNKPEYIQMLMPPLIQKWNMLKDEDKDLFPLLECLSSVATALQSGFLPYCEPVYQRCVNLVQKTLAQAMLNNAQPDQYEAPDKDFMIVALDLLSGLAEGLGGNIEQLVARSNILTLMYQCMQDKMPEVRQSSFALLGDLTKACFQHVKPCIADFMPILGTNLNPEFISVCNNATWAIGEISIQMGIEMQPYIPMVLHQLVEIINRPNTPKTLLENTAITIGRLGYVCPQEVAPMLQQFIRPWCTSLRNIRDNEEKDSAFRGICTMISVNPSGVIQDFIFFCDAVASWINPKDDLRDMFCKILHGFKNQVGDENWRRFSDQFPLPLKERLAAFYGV

GGSYNDFGNYNNQSSNFGPMKGGNFGGRFEPYANPTKR [M9M peptide]: the percent reduction of TCF/LEF luciferase activity in 3T3 mouse fibroblast reporter cells activated by human β-catenin-GFP; blocks TNPO1 with β-catenin was 45%.
On to GGSYNDFGNYNNQSSNAAAAKGGNFGGAFEAAANPTKR [M9M-A peptide], for which the percent reduction of TCF/LEF luciferase activity in 3T3 mouse fibroblast reporter cells activated by human β-catenin-GFP worked out at 24%.

Source of the values: article PMC9665845.
